In PMC6443961, “Von Willebrand Factor Mediates Pneumococcal Aggregation and Adhesion in Blood Flow” (Frontiers in Microbiology, 2019):
“And” between values parts separate entries of the source, which are not always exact repeats. Equal values may be shown once.

Legend:
[1] = target: recombinant enolase of S. pneumoniae serotype 2 (ATCC 11733) (Streptococcus pneumoniae serotype 2 (ATCC 11733)) (UniProt Q97QS2); experiment: SPR; rEno immobilised by amine coupling on CM5 chip (BIAcore T200), VWF or A domains as analyte, PBS pH 7.4 with 0.05% Tween 20, 25°C, 10 μl/min, 1:1 Langmuir model
recombinant enolase of S. pneumoniae serotype 2 (ATCC 11733) (Streptococcus pneumoniae serotype 2 (ATCC 11733)), sequence (Q97QS2 whole entry, the tested form may be a part): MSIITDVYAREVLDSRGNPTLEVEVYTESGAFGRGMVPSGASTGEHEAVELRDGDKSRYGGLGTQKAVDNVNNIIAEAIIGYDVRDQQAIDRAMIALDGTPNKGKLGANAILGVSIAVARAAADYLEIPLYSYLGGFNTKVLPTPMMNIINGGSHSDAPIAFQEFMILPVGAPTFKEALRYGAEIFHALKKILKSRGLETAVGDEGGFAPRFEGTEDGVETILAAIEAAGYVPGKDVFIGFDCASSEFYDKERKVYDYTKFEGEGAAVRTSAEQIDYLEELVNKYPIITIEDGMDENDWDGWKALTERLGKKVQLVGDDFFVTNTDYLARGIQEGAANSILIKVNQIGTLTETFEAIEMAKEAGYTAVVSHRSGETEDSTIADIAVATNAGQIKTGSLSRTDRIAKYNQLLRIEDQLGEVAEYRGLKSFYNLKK

[2] = target: recombinant enolase protein (rEno) of S. pneumoniae serotype 2 (ATCC 11733) (Streptococcus pneumoniae serotype 2 (ATCC 11733)) (UniProt Q04KG2); experiment: SPR; rEno immobilised by amine coupling on CM5 chips (BIAcore T200); PBS pH 7.4 with 0.05% Tween 20, 25°C, 10 µl/min; analytes plasma VWF 0.625-10.0 µg/ml or VWF A1 domain 0.0612-1.0 µg/ml; 1:1 Langmuir model; values of the single independent kinetic runs
recombinant enolase protein (rEno) of S. pneumoniae serotype 2 (ATCC 11733) (Streptococcus pneumoniae serotype 2 (ATCC 11733)), sequence (Q04KG2 whole entry, the tested form may be a part): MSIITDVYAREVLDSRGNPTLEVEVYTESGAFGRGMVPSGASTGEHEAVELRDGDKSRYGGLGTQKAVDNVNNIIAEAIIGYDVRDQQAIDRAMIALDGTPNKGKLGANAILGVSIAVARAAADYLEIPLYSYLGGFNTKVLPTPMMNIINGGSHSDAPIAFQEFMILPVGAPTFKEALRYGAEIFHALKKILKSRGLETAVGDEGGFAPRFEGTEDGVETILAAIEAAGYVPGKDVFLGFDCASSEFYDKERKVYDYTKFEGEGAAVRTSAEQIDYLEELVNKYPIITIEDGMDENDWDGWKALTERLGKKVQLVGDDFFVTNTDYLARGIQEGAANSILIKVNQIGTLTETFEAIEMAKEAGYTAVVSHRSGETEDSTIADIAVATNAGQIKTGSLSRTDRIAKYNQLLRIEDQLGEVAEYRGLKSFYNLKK

[3] = target: T1, human plasma von Willebrand factor (human, UniProt P04275 764-2813); experiment: peptide or protein array; 141 overlapping 15mer peptides of enolase (offset three) on cellulose membrane, overlay with 2.0 μg/ml VWF, detected with anti-VWF antibody; settings: both partners purified
T1 construct: von Willebrand factor, human, derived from plasma; called 'full length VWF' in the SPR methods, as against the single A domains; Glycoprotein from plasma that circulates as multimers; also called VWF; plasma VWF; source: bought: Merck Chemicals (human plasma VWF)

“recombinant VWF domain A1 (domain or fragment)” gave a Kd [1] of 0.208 nM.

For “recombinant VWF domain A1 (from UniProt P04275 23-2813) (domain or fragment)”, the Kd [2] was 2.18 nM and 1.79 nM and 0.585 nM and the koff [2] was 0.00126 s⁻¹ and 0.00175 s⁻¹ and 0.0013 s⁻¹.

B1: enolase peptide 181YGAEIFHALKKILKS195 (peptide)
peptide: YGAEIFHALKKILKS
notes: residues 181-195 of the enolase of S. pneumoniae; one 15mer of the peptide spot array; Synthesised as a spot and held on the cellulose membrane; also called core peptide of region no; source: synthetic peptide, spot on an amino pegylated cellulose membrane
B1: binds [3].
